According to patent publication US8569455B2, “Cloning, yeast expression, purification and biological activity of the extension region of the soybean 7S globulin alfa' subunit involved in HEP G2 cell cholesterol homeostasis” (Indena S.p.A., priority 2009, dated 2013):
Marks after values point to notes of the source that are not given here.

Assays:
HepG2 cells [1] = experiment: Uptake and degradation of 125I-LDL by HepG2 cells; type: cell-based, human; details: for Degradation % / Uptake %: % of LPDS control (100); for Degradation ng125I-LDL/mg cell protein / Uptake ng125I-LDL/mg cell protein: HepG2, 24 h preincubation in 5% LPDS, then 125I-LDL 7.5 mg/L for 5 h, mean ± SD
From the text: The established human hepatoma cell line (HepG2) was obtained from American Type Culture Collection (Rockville, Md.). Eagle's minimum essential medium (MEM), fetal calf serum, trypsin-EDTA (1×), penicillin (10^5 U/L), streptomycin (100 g/L), tricine buffer (1 mmol/L, pH 7.4) and non-essential amino acid solutions (100×) were from GIBCO (Madison, Wis.). Petri dishes were from COSTAR (Cambridge, Mass.). Filters were from Millipore (Bedford, Mass.). […] Sephadex G25 columns (PD10) were from Pharmacia Biotech (Uppsala, Sweden). LDH and MTT kit were from Sigma Diagnostics (Milano-Italy). All other chemicals were of analytical grade from Merck (Darmstadt, Germany). […] For experiments designed to evaluate the LDL receptor modulation, cells were seeded in 35 mm plastic dishes (3-5×10^5 cells) and used just before reaching confluence. In all cell culture experiments, the medium was changed every 2-3 days. In order to assess cell viability, culture media from cells exposed to eα′ at different concentrations were tested by methyltetrazolium salts (MTT) assay, essentially as described in ref. 9. Cell enzyme leakage was determined by measuring lactate dehydrogenase (LDH) activity, using a kinetic (LDH/LD) diagnostic kit (Sigma Diagnostics). […] Human lipoprotein deficient serum (LPDS) was prepared as previously described.
Monolayers of cells were preincubated at 37° C. for 24 h in MEM supplemented with 5 g/100 g LPDS to up-regulate the LDL-receptors, in the presence/absence of eα′ at different concentrations listed in Table or 3.5 μmol/L α′ purified subunit or 1.0 μmol/L simvastatin.
Differences in cell uptake and degradation of LDL after cell incubation with eα′ at different concentrations were determined by ANOVA followed by Dunnett's test. Values are expressed as means±SD; P values<0.05 were considered as statistically significant.

LDL-R = details: Hep G2 cells exposed to the peptide at 100 μM; cited from earlier work
HepG2 cells [2] = experiment: Cell enzyme leakage, lactate dehydrogenase (LDH) activity; type: cell-based, human; details: all concentrations tested; data not shown
From the text: (§1) The established human hepatoma cell line (HepG2) was obtained from American Type Culture Collection (Rockville, Md.). Eagle's minimum essential medium (MEM), fetal calf serum, trypsin-EDTA (1×), penicillin (10^5 U/L), streptomycin (100 g/L), tricine buffer (1 mmol/L, pH 7.4) and non-essential amino acid solutions (100×) were from GIBCO (Madison, Wis.). Petri dishes were from COSTAR (Cambridge, Mass.). Filters were from Millipore (Bedford, Mass.). The Protein Coomassie Plus Protein Assay kit was purchased from Pierce (Rockford, Ill., USA). ^125Iodine, carrier free, in 100 mmol/L NaOH, was from Perkin Elmer Life Sciences (Boston, Mass.). Sephadex G25 columns (PD10) were from Pharmacia Biotech (Uppsala, Sweden). LDH and MTT kit were from Sigma Diagnostics (Milano-Italy). All other chemicals were of analytical grade from Merck (Darmstadt, Germany). Cells were grown in monolayers in 90 mm-diameter Petri dishes, and maintained at 37° C. in a humidified atmosphere of 95% air, 5% CO2 in MEM supplemented with 10% fetal calf serum (FCS), non essential amino acid solution (1%, v/v), penicillin (10^5 U/L), streptomycin (0.1 g/L), tricine buffer (20 mmol/L, pH 7.4), NaHCO3 (24 mmol/L) and sodium pyruvate (0.11 g/L). […] Cell enzyme leakage was determined by measuring lactate dehydrogenase (LDH) activity, using a kinetic (LDH/LD) diagnostic kit (Sigma Diagnostics). […]

HepG2 cells [3] = experiment: Cell viability by methyltetrazolium salts (MTT) assay; type: cell-based, human; details: all concentrations tested; data not shown
From the text: as §1

CCC(C)(C)C(=O)O[C@H]1C[C@@H](C)C=C2C=C[C@H](C)[C@H](CC[C@@H]3C[C@@H](O)CC(=O)O3)[C@H]21 [Simvastatin, simvastatin, reference compound]
Degradation % (HepG2 cells [1]; 1.0 μmol/L): 179% | Uptake % (HepG2 cells [1]; 1.0 μmol/L): 200% | Degradation ng125I-LDL/mg cell protein (HepG2 cells [1]; 1.0 μmol/L): 143 ± 7.9** ng^125 I-LDL/mg cell protein | Uptake ng125I-LDL/mg cell protein (HepG2 cells [1]; 1.0 μmol/L): 188 ± 10** ng^125 I-LDL/mg cell protein

FVVNATSN (Glycine max) [LDL-R transcription stimulating peptide deriving from the 7S globulin β chain]
Increased LDL-R transcription (LDL-R): +148%

B1: eα′: recombinant N-terminal extension region of the soybean 7S globulin α′ subunit, expressed in Pichia pastoris, about 20 kDa, SEQ ID NO: 1 (protein)
chain: AVEEEEECEEGQIPRPRPQHPERERQQHGEKEEDEGEQPRPFPFPRPRQPHQEEEHEQKEEHEWHRKEEKHGGKGSEEEQDEREHPRPHQPHQKEEEKHEWQHKQEKHQGKESEEEEEDQDEDEEQDKESQESEGSESQREP
modifications: Glycine max
Cellular toxicity, LDH assay (HepG2 cells [2]): At no concentration of eα′ was there any evidence of cellular toxicity | Degradation % (HepG2 cells [1]; 0.5 μmol/L): 125% | Uptake % (HepG2 cells [1]; 0.5 μmol/L): 120% | Degradation ng125I-LDL/mg cell protein (HepG2 cells [1]; 0.5 μmol/L): 100 ± 10* ng^125 I-LDL/mg cell protein | Uptake ng125I-LDL/mg cell protein (HepG2 cells [1]; 0.5 μmol/L): 113 ± 7.1* ng^125 I-LDL/mg cell protein | Degradation % (HepG2 cells [1]; 1.0 μmol/L): 148% | Uptake % (HepG2 cells [1]; 1.0 μmol/L): 146% | Degradation ng125I-LDL/mg cell protein (HepG2 cells [1]; 1.0 μmol/L): 118 ± 9.3* ng^125 I-LDL/mg cell protein | Uptake ng125I-LDL/mg cell protein (HepG2 cells [1]; 1.0 μmol/L): 138 ± 9.2* ng^125 I-LDL/mg cell protein | Degradation % (HepG2 cells [1]; 2.0 μmol/L): 196% | Uptake % (HepG2 cells [1]; 2.0 μmol/L): 179% | Degradation ng125I-LDL/mg cell protein (HepG2 cells [1]; 2.0 μmol/L): 157 ± 8.7** ng^125 I-LDL/mg cell protein | Uptake ng125I-LDL/mg cell protein (HepG2 cells [1]; 2.0 μmol/L): 169 ± 6.7** ng^125 I-LDL/mg cell protein | Cellular toxicity, MTT assay (HepG2 cells [3]): At no concentration of eα′ was there any evidence of cellular toxicity

B2: 7S α′ subunit: purified full size α′ subunit of the soybean 7S globulin, around 71 kDa, positive control (protein)
chain: VEEEEECEEGQIPRPRPQHPERERQQHGEKEEDEGEQPRPFPFPRPRQPHQEEEHEQKEEHEWHRKEEKHGGKGSEEEQDEREHPRPHQPHQKEEEKHEWQHKQEKHQGKESEEEEEDQDEDEEQDKESQESEGSESQREPRRHKNKNPFHFNSKRFQTLFKNQYGHVRVLQRFNKRSQQLQNLRDYRILEFNSKPNTLLLPHHADADYLIVILNGTAILTLVNNDDRDSYNLQSGDALRVPAGTTFYVVNPDNDENLRMIAGTTFYVVNPDNDENLRMITLAIPVNKPGRFESFFLSSTQAQQSYLQGFSKNILEASYDTKFEEINKVLFGREEGQQQGEERLQESVIVEISKKQIRELSKHAKSSSRKTISSEDKPFNLGSRDPIYSNKLGKLFEITQRNPQLRDLDVFLSVVDMNEGALFLPHFNSKAIVVLVINEGEANIELVGIKEQQQRQQQEEQPLEVRKYRAELSEQDIFVIPAGYPVMVNATSDLNFFAFGINAENNQRNFLAGSKDNVISQIPSQVQELAFPRSAKDIENLIKSQSESYFVDAQPQQKEEGNKGRKGPLSSILRAFY
modifications: Glycine max
notes: purified full size α′ subunit of the soybean 7S globulin, around 71 kDa, positive control
Degradation % (HepG2 cells [1]; 3.5 μmol/L): 160% | Uptake % (HepG2 cells [1]; 3.5 μmol/L): 164% | Degradation ng125I-LDL/mg cell protein (HepG2 cells [1]; 3.5 μmol/L): 128 ± 4.8* ng^125 I-LDL/mg cell protein | Uptake ng125I-LDL/mg cell protein (HepG2 cells [1]; 3.5 μmol/L): 154 ± 9.1* ng^125 I-LDL/mg cell protein
